Measurements taken from US20190270815A1 (WUXI BIOLOGICS IRELAND, published 2019).

Experiments:
Assay in all cases: ELISA, antibody coated, His-tagged PD-1 mutant supernatant; fold change vs silent alanine substitutions
[1] = target: T1, hPD-1 ECD-His point mutant G 47 (to alanine) (human, UniProt Q15116 25-170)
T1 construct: extracellular domain
Description: (§1) After interacting with the supernatant that contains quantified PD-1 mutant, HRP conjugated anti-His antibody (Rockland, Cat#200-303-382) was added as detection antibody. Absorbance was normalized according to the average of control mutants. After setting an additional cutoff to t4he binding fold change (<0.55), the final determined epitope residues were identified.

[2] = target: T2, hPD-1 ECD-His point mutant N 49 (to alanine) (human, UniProt Q15116 25-170)
T2 construct: extracellular domain
Description: as §1

[3] = target: T3, hPD-1 ECD-His point mutant F 52 (to alanine) (human, UniProt Q15116 25-170)
T3 construct: extracellular domain
Description: as §1

[4] = target: T4, hPD-1 ECD-His point mutant V 64 (to alanine) (human, UniProt Q15116 25-170)
T4 construct: extracellular domain
Description: as §1

[5] = target: T5, hPD-1 ECD-His point mutant L 65 (to alanine) (human, UniProt Q15116 25-170)
T5 construct: extracellular domain
Description: as §1

[6] = target: T6, hPD-1 ECD-His point mutant R 94 (to alanine) (human, UniProt Q15116 25-170)
T6 construct: extracellular domain
Description: as §1

[7] = target: T7, hPD-1 ECD-His point mutant F 95 (to alanine) (human, UniProt Q15116 25-170)
T7 construct: extracellular domain
Description: as §1

[8] = target: T8, hPD-1 ECD-His point mutant C 123 (to alanine) (human, UniProt Q15116 25-170)
T8 construct: extracellular domain
Description: as §1

[9] = target: T9, hPD-1 ECD-His point mutant I 126 (to alanine) (human, UniProt Q15116 25-170)
T9 construct: extracellular domain
Description: as §1

[10] = target: T10, hPD-1 ECD-His point mutant A 129 (to glycine) (human, UniProt Q15116 25-170)
T10 construct: extracellular domain
Description: as §1

[11] = target: T11, hPD-1 ECD-His point mutant P 130 (to alanine) (human, UniProt Q15116 25-170)
T11 construct: extracellular domain
Description: as §1

[12] = target: T12, hPD-1 ECD-His point mutant A 132 (to glycine) (human, UniProt Q15116 25-170)
T12 construct: extracellular domain
Description: as §1

[13] = target: T13, hPD-1 ECD-His point mutant K 135 (to alanine) (human, UniProt Q15116 25-170)
T13 construct: extracellular domain
Description: as §1

[14] = target: T14, hPD-1 ECD-His point mutant L 142 (to alanine) (human, UniProt Q15116 25-170)
T14 construct: extracellular domain
Description: as §1

T7 sequence (Q15116 other isoform, or with tags, fused parts or gaps mutant): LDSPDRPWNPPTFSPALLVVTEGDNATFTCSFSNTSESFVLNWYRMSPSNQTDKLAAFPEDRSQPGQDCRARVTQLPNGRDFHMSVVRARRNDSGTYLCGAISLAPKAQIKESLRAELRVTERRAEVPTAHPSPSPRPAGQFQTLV
T10 sequence (Q15116 other isoform, or with tags, fused parts or gaps mutant): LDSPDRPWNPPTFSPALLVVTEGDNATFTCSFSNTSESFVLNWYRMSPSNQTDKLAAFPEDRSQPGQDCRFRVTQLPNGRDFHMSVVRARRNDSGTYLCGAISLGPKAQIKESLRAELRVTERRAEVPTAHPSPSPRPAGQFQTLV
T6 sequence (Q15116 other isoform, or with tags, fused parts or gaps mutant): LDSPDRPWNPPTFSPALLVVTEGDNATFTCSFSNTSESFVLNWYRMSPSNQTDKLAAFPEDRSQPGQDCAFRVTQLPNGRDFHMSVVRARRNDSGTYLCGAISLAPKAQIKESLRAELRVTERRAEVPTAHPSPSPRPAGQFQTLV
T3 sequence (Q15116 other isoform, or with tags, fused parts or gaps mutant): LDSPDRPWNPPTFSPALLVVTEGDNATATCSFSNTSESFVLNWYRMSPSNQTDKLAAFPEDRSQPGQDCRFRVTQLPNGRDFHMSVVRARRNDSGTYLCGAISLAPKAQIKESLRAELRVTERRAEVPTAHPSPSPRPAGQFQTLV
T5 sequence (Q15116 other isoform, or with tags, fused parts or gaps mutant): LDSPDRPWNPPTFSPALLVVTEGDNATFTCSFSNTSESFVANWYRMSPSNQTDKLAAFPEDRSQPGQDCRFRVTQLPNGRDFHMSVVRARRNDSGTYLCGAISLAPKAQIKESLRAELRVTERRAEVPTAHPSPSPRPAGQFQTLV
T8 sequence (Q15116 other isoform, or with tags, fused parts or gaps mutant): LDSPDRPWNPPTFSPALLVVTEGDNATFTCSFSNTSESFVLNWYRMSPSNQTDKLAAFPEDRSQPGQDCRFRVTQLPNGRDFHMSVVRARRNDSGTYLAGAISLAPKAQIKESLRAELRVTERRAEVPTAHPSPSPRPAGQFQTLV
T11 sequence (Q15116 other isoform, or with tags, fused parts or gaps mutant): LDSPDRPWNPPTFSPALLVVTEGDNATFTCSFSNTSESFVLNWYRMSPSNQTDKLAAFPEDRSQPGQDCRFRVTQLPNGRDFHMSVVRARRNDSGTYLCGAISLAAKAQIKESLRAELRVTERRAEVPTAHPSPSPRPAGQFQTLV
T12 sequence (Q15116 other isoform, or with tags, fused parts or gaps mutant): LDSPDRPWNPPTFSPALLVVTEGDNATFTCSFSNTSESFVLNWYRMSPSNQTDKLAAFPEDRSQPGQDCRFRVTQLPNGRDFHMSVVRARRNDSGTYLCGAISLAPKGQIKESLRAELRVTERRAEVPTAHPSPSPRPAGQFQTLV
T2 sequence (Q15116 other isoform, or with tags, fused parts or gaps mutant): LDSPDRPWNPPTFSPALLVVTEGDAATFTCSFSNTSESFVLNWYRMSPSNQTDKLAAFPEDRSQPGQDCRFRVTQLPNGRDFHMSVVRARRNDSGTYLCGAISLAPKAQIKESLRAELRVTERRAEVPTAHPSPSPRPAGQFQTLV
T14 sequence (Q15116 other isoform, or with tags, fused parts or gaps mutant): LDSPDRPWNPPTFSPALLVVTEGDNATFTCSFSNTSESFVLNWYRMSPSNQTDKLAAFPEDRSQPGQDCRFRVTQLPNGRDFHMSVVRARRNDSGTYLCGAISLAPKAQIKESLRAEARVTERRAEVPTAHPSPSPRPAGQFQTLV
T13 sequence (Q15116 other isoform, or with tags, fused parts or gaps mutant): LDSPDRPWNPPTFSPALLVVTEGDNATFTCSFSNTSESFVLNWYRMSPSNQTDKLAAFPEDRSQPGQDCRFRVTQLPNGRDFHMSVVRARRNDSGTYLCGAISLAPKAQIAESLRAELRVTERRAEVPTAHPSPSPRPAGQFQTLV
T9 sequence (Q15116 other isoform, or with tags, fused parts or gaps mutant): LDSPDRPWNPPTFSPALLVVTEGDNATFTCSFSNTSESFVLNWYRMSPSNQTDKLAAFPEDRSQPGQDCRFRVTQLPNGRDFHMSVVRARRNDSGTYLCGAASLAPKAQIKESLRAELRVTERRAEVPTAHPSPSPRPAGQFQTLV
T4 sequence (Q15116 other isoform, or with tags, fused parts or gaps mutant): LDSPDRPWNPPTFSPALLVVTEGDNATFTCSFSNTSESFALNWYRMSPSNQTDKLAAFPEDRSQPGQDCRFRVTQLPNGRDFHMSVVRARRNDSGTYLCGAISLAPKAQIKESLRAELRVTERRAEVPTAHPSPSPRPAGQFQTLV
T1 sequence (Q15116 other isoform, or with tags, fused parts or gaps mutant): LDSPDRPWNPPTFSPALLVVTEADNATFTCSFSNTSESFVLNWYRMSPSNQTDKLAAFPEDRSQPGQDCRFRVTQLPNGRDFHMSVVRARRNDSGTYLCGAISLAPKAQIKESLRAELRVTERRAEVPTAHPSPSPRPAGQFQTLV

fold change [1]: 0.77 | fold change [2]: 0.73 | fold change [3]: 0.59 | fold change [4]: 0.32 | fold change [5]: 0.75 | fold change [6]: 0.7 | fold change [7]: 0.63 | fold change [8]: 0.46 | fold change [9]: 0.64 | fold change [10]: 0.22 | fold change [11]: 0.41 | fold change [12]: 0.53 | fold change [13]: 0.62 | fold change [14]: 0.44
B1: 1.103.11 hAb (antibody, V domains shown)
VH: QLQLQESGPGLVKPSETLTLTCTVSADSISSTTYYWVWIRQPPGKGLEWIGSISYSGSTYYNPSLKSRVTVSVDTSKNQFSLKLNSVAATDTALYYCARHLGYNGRYLPFDYWGQGTLVTVSS
VL: QSALTQPASVSGSPGQSITISCTGTSSDVGFYNYVSWYQQHPGKAPELMIYDVSNRPSGVSDRFSGSKSGNTASLTISGLQAEDEADYYCSSYTNISTWVFGGGTKLTVL
notes: fully human monoclonal antibody with a human constant region of IgG4 isotype
